According to patent US20150306011:

Target: histone H3 (acid extracted histones from untreated HeLa cells), P68431

B1: PCAF histone acetylase enzyme (protein)
chain: MLEEEVYSQNSPIWDQDFLSASSRTSQLGIQTVINPPPVAGTISYNSTSSSLEQPNAGSSSPACKASSGLEANPGEKRKMTDSHVLEEAKKPRVMGDIPMELINEVMSTITDPAAMLGPETNFLSAHSARDEAARLEERRGVIEFHVVGNSLNQKPNKKILMWLVGLQNVFSHQLPRMPKEYITRLVFDPKHKTLALIKDGRVIGGICFRMFPSQGFTEIVFCAVTSNEQVKGYGTHLMNHLKEYHIKHDILNFLTYADEYAIGYFKKQGFSKEIKIPKTKYVGYIKDYEGATLMGCELNPRIPYTE
histone H3 acetylation in PCAF HAT reaction (immunoblot, diacetylated H3 Ac-Lys9+Ac-Lys14): 35-fold increase
